From PMC4469990 (2015)
Like-named read-outs stand apart in the source and are kept apart here. Each block holds one molecule with its values, some of them ahead of it.

What was measured:
[1] = molecular target: Factor VIII A3C1C2 subunit A3C1C2 (Homo sapiens) (UniProt P00451); conditions: cited from earlier work
[2] = molecular target: Factor VIII A1/A3C1C2 dimer A1/A3C1C2 (Homo sapiens) (UniProt P00451); conditions: cited from earlier work
[3] = molecular target: Factor VIII A1/A3C1C2 dimer A1/A3C1C2 (Homo sapiens) (UniProt P00451); assay: FXa generation assay; conditions: cited from earlier work
[4] = molecular target: T1, Factor VIIIa A1/A3C1C2 dimer A1/A3C1C2 (Homo sapiens, UniProt P00451); assay: FVIIIa reconstitution assay
T1 chain 1: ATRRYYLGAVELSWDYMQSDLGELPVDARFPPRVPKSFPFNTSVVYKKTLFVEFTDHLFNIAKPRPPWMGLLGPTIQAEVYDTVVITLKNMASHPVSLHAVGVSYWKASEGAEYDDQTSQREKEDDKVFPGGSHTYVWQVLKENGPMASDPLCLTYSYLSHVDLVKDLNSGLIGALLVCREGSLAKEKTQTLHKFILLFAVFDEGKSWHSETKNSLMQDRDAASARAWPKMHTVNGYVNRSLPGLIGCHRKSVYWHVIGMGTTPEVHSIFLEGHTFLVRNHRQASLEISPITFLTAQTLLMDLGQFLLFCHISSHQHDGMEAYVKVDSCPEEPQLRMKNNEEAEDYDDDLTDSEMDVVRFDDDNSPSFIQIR
T1 chain 2: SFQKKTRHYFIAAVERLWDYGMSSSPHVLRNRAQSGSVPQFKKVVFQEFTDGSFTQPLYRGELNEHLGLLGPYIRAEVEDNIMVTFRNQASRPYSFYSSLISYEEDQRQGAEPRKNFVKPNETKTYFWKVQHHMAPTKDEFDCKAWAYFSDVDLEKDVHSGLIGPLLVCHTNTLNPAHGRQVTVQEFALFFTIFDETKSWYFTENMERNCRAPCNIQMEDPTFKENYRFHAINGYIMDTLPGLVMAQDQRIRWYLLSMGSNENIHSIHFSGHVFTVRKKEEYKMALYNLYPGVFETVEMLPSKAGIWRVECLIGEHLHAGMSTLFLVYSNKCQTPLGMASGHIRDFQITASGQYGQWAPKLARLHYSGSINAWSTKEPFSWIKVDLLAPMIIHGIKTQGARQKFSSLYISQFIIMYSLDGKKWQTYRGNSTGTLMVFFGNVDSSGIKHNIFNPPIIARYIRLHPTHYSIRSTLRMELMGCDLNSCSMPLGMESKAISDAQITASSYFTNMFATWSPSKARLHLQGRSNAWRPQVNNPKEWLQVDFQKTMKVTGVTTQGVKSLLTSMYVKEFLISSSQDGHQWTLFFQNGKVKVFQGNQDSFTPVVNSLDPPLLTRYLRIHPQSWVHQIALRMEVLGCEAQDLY

Molecule: Factor VIII A1 subunit A1 (from UniProt P00451)
- Kd [1]: 60 nM

Molecule: Factor VIII A2 subunit A2 (from UniProt P00451)
- Kd [2]: 260 nM
- Kd [3]: 30 nM

Next, values leading:

- Kd [4]: 56.3 nM
B1: Factor VIIIa A2 subunit A2 (protein)
chain: SVAKKHPKTWVHYIAAEEEDWDYAPLVLAPDDRSYKSQYLNNGPQRIGRKYKKVRFMAYTDETFKTREAIQHESGILGPLLYGEVGDTLLIIFKNQASRPYNIYPHGITDVRPLYSRRLPKGVKHLKDFPILPGEIFKYKWTVTVEDGPTKSDPRCLTRYYSSFVNMERDLASGLIGPLLICYKESVDQRGNQIMSDKRNVILFSVFDENRSWYLTENIQRFLPNPAGVQLEDPEFQASNIMHSINGYVFDSLQLSVCLHEVAYWYILSIGAQTDFLSVFFSGYTFKHKMVYEDTLTLFPFSGETVFMSMENPGLWILGCHNSDFRNRGMTALLKVSSCDKNTGDYYEDSYEDISAYLLSKNNAIEPR

- Kd [4]: 10 nM
B2: Factor VIIIa A2 subunit A2 (protein)
chain: SVAKKHPKTWVHYIAAEEEDWDYAPLVLAPDDRSYKSQYLNNGPQRIGRKYKKVRFMAYTDETFKTREAIQHESGILGPLLYGEVGDTLLIIFKNQASRPYNIYPHGITDVRPLYSRRLPKGVKHLKVFPILPGEIFKYKWTVTVEDGPTKSDPRCLTRYYSSFVNMERDLASGLIGPLLICYKESVDQRGNQIMSDKRNVILFSVFDENRSWYLTENIQRFLPNPAGVQLEDPEFQASNIMHSINGYVFDSLQLSVCLHEVAYWYILSIGAQTDFLSVFFSGYTFKHKMVYEDTLTLFPFSGETVFMSMENPGLWILGCHNSDFRNRGMTALLKVSSCDKNTGDYYEDSYEDISAYLLSKNNAIEPR
